Experimental data reported in patent US20110091994A1, “Methods for Screening Compounds for Treating and/or Preventing an Hepatitis C Virus Infection” (priority 2008, published 2011).
Read-outs that look alike come from different tables or passages of the source.

Tests used:
[1] = molecular target: T1, GST-tagged viral proteins (Hepatitis C virus genotype 1b, UniProt Q9WMX2); experiment: Validation by co-affinity purification (CoAP); type: binding, HCV genotype 1b, isolate con1; design: key: +: IMAP validation; −: not validated; NA: non assayable due to default of protein expression or to cellular protein directly interacting with GST
T1 construct: expressed in transfected cells; host or cells: HEK-293T
Excerpt: C. Validation of Y2H interactions by co-affinity purification assay. Nine co-AP positive assays are shown, representing: NS5A-SORBS2 (1), NS3-CALCOCO2 (2), NS5A-BIN1 (3), NS5A-MOBK1B (4), NS5A-EFEMP1 (5), NS3-PSMB9 and NS5A-PSMB9 (6), NS5A-PPPIRI3L (7), NS3-RASAL2 (8). After pull-down with GST tagged viral baits (+) or with negative control GST alone (−), cellular preys are identified with anti-Flag antibody. Anti-GST antibody identifies either GST alone or GST-tagged viral baits. Expression of cellular preys in cell lysate is controlled by anti-Flag (bottom panel). […]
A random pool of 59 IMAP Y2H interactions was chosen for CoAP assays. Cellular ORFs (interacting domains found in Y2H screens) were cloned by recombinational cloning from a pool of human cDNA library or the MGC cDNA plasmids using KOD polymerase (Toyobo) into pDONR207 (Invitrogen). After validation by sequencing, these ORFs were transferred to pCi-neo-3xFLAG gateway-converted, and HCV ORFs were transferred into pDEST27 (GST fusion in N-term). HEK-293T cells were then co-transfected (JetPei, Polyplus) by each pair of plasmid encoding interacting proteins. Controls are GST alone against 3xFLAG-tagged preys. Two days after transfection, cells were harvested and lysed (0.5% NP-40, 20 mM Tris-HCl (pH 8.0), 180 mM NaCl, 1 mM EDTA, and complete protease inhibitor cocktail). Cell lysates were cleared by centrifugation for 20 min at 13,000 rpm at 4° C. and soluble protein complexes were purified using Glutathione Sepharose 4B beads (GE Healthcare). Beads were then washed extensively four times with lysis buffer and proteins were separated on SDS-PAGE and transferred to nitrocellulose membrane. GST-tagged viral proteins and 3xFLAG-tagged cellular proteins were detected using standard immunoblotting techniques using anti-GST (Covance) and anti-FLAG M2 (Sigma) monoclonal antibodies (21).

[2] = molecular target: T2, HCV ORFs (Gal4-DB fusions) (Hepatitis C virus genotype 1b, UniProt Q9WMX2); type: binding, HCV genotype 1b, isolate con1; conditions: human protein as prey
T2 construct: expressed in transfected cells; host or cells: Saccharomyces cerevisiae MAV203 (IMAP1) / AH109 (IMAP2)

[3] = system: HCV ORFs (Gal4-DB fusions); type: binding, HCV genotype 1b, isolate con1; conditions: human protein listed by gene symbol; the value names the HCV protein it interacts with
HCV proteins = molecular target: T3, HCV proteins (Hepatitis C virus genotype 1b, UniProt Q9WMX2); experiment: Validation by Y2H pairwise matrices; type: binding;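 further: yeast two-hybrid pairwise tests of interactions first found in Y2H screens of HCV bait proteins against human cDNA libraries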
T3 construct: expressed in transfected cells

HCV RNA replication = HCV RNA replication under bile acids / FXR ligands; type: cell-based, Hepatitis C virus
[4] = validation of interaction with HCV protein NS3
[5] = validation of interaction with HCV protein CORE
[6] = interaction with HCV protein NS5A
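Wherever IMAP Y2H IMAP1 (number of IST) is given: yeast two-hybrid screens using HCV genotype 1b proteins fused to Gal4-DB as baits against prey cDNA libraries from human spleen and foetal brain, IMAP1 via transformation and IMAP2 via mating.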
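Wherever IMAP Y2H IMAP2 (number of IST) is given: yeast two-hybrid screens using HCV genotype 1b proteins fused to Gal4-DB as baits against prey cDNA libraries from human spleen and foetal brain, IMAP1 via transformation and IMAP2 via mating.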
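Wherever Interaction with viral protein is given: yeast two-hybrid screens using HCV genotype 1b proteins fused to Gal4-DB as baits against prey cDNA libraries from human spleen and foetal brain, IMAP1 via transformation and IMAP2 via mating.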

Compound | IMAP Y2H IMAP1 (number of IST) ([2]; HCV protein NS3 as bait) | Interaction with viral protein [3] | Y2H matrices (HCV proteins; [4]) | other results
CALCOCO2 | 5 | NS3 | + | CoAP [1, 4]: +; IMAP Y2H IMAP2 (number of IST) ([2]; HCV protein NS3 as bait): 2
ACTN2 | 10 | NS3 | + | CoAP [1, 4]: −; IMAP Y2H IMAP2 (number of IST) ([2]; HCV protein NS3 as bait): 6
SMURF2 |  | NS3 and NS2 |  | CoAP [1, 4]: +; IMAP Y2H IMAP2 (number of IST) ([2]; HCV protein NS3 as bait): 4
KPNA1 |  | NS3 |  | CoAP [1, 4]: +; IMAP Y2H IMAP2 (number of IST) ([2]; HCV protein NS3 as bait): 8
TRIO | 1 | NS3 | + | IMAP Y2H IMAP2 (number of IST) ([2]; HCV protein NS3 as bait): 1
HIVEP2 | 3 | NS3 and CORE | + | IMAP Y2H IMAP2 (number of IST) ([2]; HCV protein CORE as bait): 2; IMAP Y2H IMAP2 (number of IST) ([2]; HCV protein NS3 as bait): 5
MEGF8 | 2 | NS3 | + | 
TRIM27 | 1 | NS3 and NS2 | + | IMAP Y2H IMAP2 (number of IST) ([2]; HCV protein NS2 as bait): 1
TAF1 | 2 | NS3 | + | 
MAPK7 | 4 | NS3 | + | 
deoxycholate |  |  |  | up-regulation of HCV RNA replication (HCV RNA replication): more than tenfold
ANKRD12 | 1 | NS3 | + | 
RICS | 3 | NS3 | + | IMAP Y2H IMAP2 (number of IST) ([2]; HCV protein NS3 as bait): 1
GON4L | 1 | NS3 | + | 
JAG2 | 1 | NS3 | + | 
PSME3 | 10 | NS3 | + | 
TGFB1I1 | 1 | NS3 | + | 
BZRAP1 | 1 | NS3 | + | 
VWF | 26 | NS3 and CORE | + | IMAP Y2H IMAP1 (number of IST) ([2]; HCV protein CORE as bait): 2; Y2H matrices (HCV proteins; [5]): +
C/C=C1\C(=O)C[C@H]2[C@@H]3CCC4=CC(=O)CC[C@]4(C)[C@H]3CC[C@]12C [guggulsterone] |  |  |  | effect on the up-regulation of HCV replication induced by BAs (HCV RNA replication; FXR antagonism, in presence of BAs): blocked the up-regulation induced by BAs; inhibition of basal level of HCV replication (HCV RNA replication; guggulsterone alone): tenfold
PPP1R13L |  | NS5A |  | CoAP [1, 6]: +; IMAP Y2H IMAP2 (number of IST) ([2]; HCV protein NS5A as bait): 2
STAB1 | 4 | NS3 | + | 
AGRN |  | CORE |  | IMAP Y2H IMAP1 (number of IST) ([2]; HCV protein CORE as bait): 1; Y2H matrices (HCV proteins; [5]): +
ZNF646 |  |  |  | CoAP [1, 6]: −; IMAP Y2H IMAP2 (number of IST) ([2]; HCV protein NS5A as bait): 2
TRIP11 | 1 | NS3 | + | 
RNF31 | 1 | NS3 and CORE | + | IMAP Y2H IMAP1 (number of IST) ([2]; HCV protein CORE as bait): 1; Y2H matrices (HCV proteins; [5]): +
UBQLN1 |  | NS4A |  | IMAP Y2H IMAP1 (number of IST) ([2]; HCV protein NS4A as bait): 2; IMAP Y2H IMAP1 (number of IST) ([2]; HCV protein p7 as bait): 3; Y2H matrices (HCV proteins; interaction with HCV protein p7): +; Y2H matrices (HCV proteins; validation of interaction with HCV protein NS4A): +
